Test results reported in patent US20140303084.
Residue numbers refer to the chain shown, from its start.

Legend:
[1] = tested on: T1, AKQGRPISPDrRAAGKLTCLASYCWLFWTGIA
T1 sequence: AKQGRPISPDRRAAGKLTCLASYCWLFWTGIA

ALTCLAAYCALF = tested on: T2, ALTCLAAYCALF
T2 sequence: ALTCLAAYCALF

[2] = tested on: T3, Biotin-PEG2-LYTAWIKCQFARLPGCALSGRW
T3 sequence: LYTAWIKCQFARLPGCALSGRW

[3] = tested on: T4, C(N-ethylmaleimide)-PEG4-LVPR-PEG4-rRAPGKLTCLASYCWLFWTGIA
T4 sequence: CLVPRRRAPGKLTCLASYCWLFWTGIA

[4] = tested on: T5, CGGG-RRAPGKLT-Asp-LASY-Lys-WLFWTGIA
T5 sequence: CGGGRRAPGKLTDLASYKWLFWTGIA

[5] = tested on: T6, CGGSGGRRAPGKLQCLASYCWLFWTGIAGGSGGC
T6 sequence: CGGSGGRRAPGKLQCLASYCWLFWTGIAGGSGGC

EGRRDKLTCLASYCWLVGHGQH = tested on: T7, EGRRDKLTCLASYCWLVGHGQH
T7 sequence: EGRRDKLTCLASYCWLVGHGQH

KL-MeThr-CLASYCWLF = tested on: T8, KL-MeThr-CLASYCWLF
T8 sequence: KLTCLASYCWLF

KLT-HCy-LASYCWLF = tested on: T9, KLT-HCy-LASYCWLF
T9 sequence: KLTXLASYCWLF

KLTCLASYCLLF = tested on: T10, KLTCLASYCLLF
T10 sequence: KLTCLASYCLLF

KLTCLASYCWL-MePhe = tested on: T11, KLTCLASYCWL-MePhe
T11 sequence: KLTCLASYCWLF

KLTCLASYcWLF = tested on: T12, KLTCLASYcWLF
T12 sequence: KLTCLASYCWLF

KLTCLATYCWLF = tested on: T13, KLTCLATYCWLF
T13 sequence: KLTCLATYCWLF

[6] = tested on: T14, PNLLRVRTSE VRNPG KLTCLASYCWLFWTGIA
T14 sequence: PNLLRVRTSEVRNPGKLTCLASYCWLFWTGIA

[7] = tested on: T15, PRIRSVGPGSRSASGKLTCLASYCWLFWTGIA
T15 sequence: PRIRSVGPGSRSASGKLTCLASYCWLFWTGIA

[8] = tested on: T16, PRIRTVGPGSRSASGKLTCVASYCWLFWTGIA
T16 sequence: T15 sequence with S5T, L20V

[9] = tested on: T17, PRIRTVSPGSRSASGKLTCLASYCWLFWTGIA
T17 sequence: T15 sequence with S5T, G7S

[10] = tested on: T18, PRTTANRRSS RRAPA KLTCLASYCWLFWTGIA
T18 sequence: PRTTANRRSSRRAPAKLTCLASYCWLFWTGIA

[11] = tested on: T19, Pra-PEG4-PRIrTVGPGSrSASGKSTCLASYCWLFWTGIA
T19 sequence: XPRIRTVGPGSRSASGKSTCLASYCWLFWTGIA

RGRSAKLRCLASYCWLFFTVIL = tested on: T20, RGRSAKLRCLASYCWLFFTVIL
T20 sequence: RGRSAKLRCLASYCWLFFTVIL

RGRSAKLTCLASYCWLFFGVIL = tested on: T21, RGRSAKLTCLASYCWLFFGVIL
T21 sequence: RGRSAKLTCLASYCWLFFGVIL

RKAPGKLQCLASYCWLFWTGIA = tested on: T22, RKAPGKLQCLASYCWLFWTGIA
T22 sequence: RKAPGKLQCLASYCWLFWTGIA

RQLWNKLTCLASYCALIGLSGT = tested on: T23, RQLWNKLTCLASYCALIGLSGT
T23 sequence: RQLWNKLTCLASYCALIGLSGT

RRAKGKLQCLASYCWLFWTGIA = tested on: T24, RRAKGKLQCLASYCWLFWTGIA
T24 sequence: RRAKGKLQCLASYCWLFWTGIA

[12] = tested on: T25, RRAPGCLTALASYAWLCWTGIA-CONH2
T25 sequence: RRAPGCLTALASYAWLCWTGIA

[13] = tested on: T26, RRAPGK(PEG2-Biotin)LTCLASYCWLFWTGIA
T26 sequence: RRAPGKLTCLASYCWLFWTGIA

[14] = tested on: T27, RRAPGKLCALASYCWLFWTGIA-COOH
T27 sequence: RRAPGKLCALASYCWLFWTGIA

[15] = tested on: T28, RRAPGKLK(PEG2-Biotin)CLASYCWLFWTGIA
T28 sequence: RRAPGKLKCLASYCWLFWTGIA

RRAPGKLQCLASYCWLFWTG = tested on: T29, RRAPGKLQCLASYCWLFWTG
T29 sequence: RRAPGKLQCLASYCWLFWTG

RRAPGKLQCLASYCWLFWT = tested on: T30, RRAPGKLQCLASYCWLFWT
T30 sequence: RRAPGKLQCLASYCWLFWT

[16] = tested on: T31, RRAPGKLT-Asp-LASY-Orn-WLFWTGIA-CONH2
T31 sequence: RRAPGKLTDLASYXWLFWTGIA

[17] = tested on: T32, RRAPGKLTCK(PEG2-Biotin)ASYCWLFWTGIA
T32 sequence: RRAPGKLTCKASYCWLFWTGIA

[18] = tested on: T33, RRAPGKLTCLASYACLFWTGIA-CONH2
T33 sequence: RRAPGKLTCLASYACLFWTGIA

[19] = tested on: T34, RRAPGKLTCLASYACLFWTGIA-COOH
T34 sequence: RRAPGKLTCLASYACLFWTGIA

[20] = tested on: T35, RRAPGKLTCLASYCWLF WTTWT TAPTTPPLTT
T35 sequence: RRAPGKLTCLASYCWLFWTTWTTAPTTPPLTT

RRAPGKLTCLASYCWLFWTGIa [21] = tested on: T36, RRAPGKLTCLASYCWLFWTGIa
T36 sequence: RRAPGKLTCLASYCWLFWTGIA

[22] = tested on: T37, RRAPGKLTCLASYCWLFWTK(PEG2-Biotin)IA
T37 sequence: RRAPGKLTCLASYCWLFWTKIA

RRAPGkLTCLASYCWLFWTGIA [23] = tested on: T38, RRAPGkLTCLASYCWLFWTGIA
T38 sequence: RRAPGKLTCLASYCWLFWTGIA

RRKPGKLQCLASYCWLFWTGIA = tested on: T39, RRKPGKLQCLASYCWLFWTGIA
T39 sequence: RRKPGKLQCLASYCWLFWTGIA

[24] = tested on: T40, SKQGRPISPDrRAAGKLTCLASYCW-NMeLeu-FWTGIA
T40 sequence: T1 sequence with A1S

[25] = tested on: T41, SKQGRPISPDrRAAGKLTCLASYCWLFWTG
T41 sequence: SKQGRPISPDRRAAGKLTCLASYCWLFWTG

[26] = tested on: T42, SKQGRPISPDrRAAGKLTCLASYCWLFW
T42 sequence: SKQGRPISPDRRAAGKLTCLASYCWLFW

[27] = tested on: T43, SRIrTVSPGSrSASGKSTCLASYCWLFWTGIA
T43 sequence: T15 sequence with P1S, S5T, G7S, L17S

[28] = tested on: T44, TSGPFGFGGS SRAQG KLTCLASYCWLFWTGIA
T44 sequence: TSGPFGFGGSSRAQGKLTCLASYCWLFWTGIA

compound 20 = tested on: T45, compound 20
T45 sequence: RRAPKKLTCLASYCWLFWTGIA

compound 22 = tested on: T46, compound 22
T46 sequence: T1 sequence with A1S

compound 25 = tested on: T47, compound 25
T47 sequence: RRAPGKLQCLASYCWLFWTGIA

compound C = tested on: T48, compound C
T48 sequence: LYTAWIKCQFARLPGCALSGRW

rRAPGKLTCLASYCWLFSTGIA = tested on: T49, rRAPGKLTCLASYCWLFSTGIA
T49 sequence: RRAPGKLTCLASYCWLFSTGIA

In the case of human Factor IXa, the Vmax, FXa generation assay [1] was greater than 3, the “Vmax, FXa generation assay; (++) means 1-2” value (shortened to “Vmax … (++) means 1-2”) (ALTCLAAYCALF) was “(++)” and the Vmax, FXa generation assay [2] was greater than 1.5. The “Vmax … (++) means 1-2” value [3] was “(++)”, the Vmax, FXa generation assay [4] was greater than 2 and the “Vmax … (++) means 1-2” value [5] was “(++)”. For the same substance, the Vmax, FXa generation assay (EGRRDKLTCLASYCWLVGHGQH) was greater than 0.3, the “Vmax … (++) means 1-2” value (KL-MeThr-CLASYCWLF) was “(++)” and the Vmax, FXa generation assay (KLT-HCy-LASYCWLF) was greater than 2. For the same substance, the Vmax, FXa generation assay (KLTCLASYCLLF) was greater than 2, the “Vmax … (++) means 1-2” value (KLTCLASYCWL-MePhe) was “(++)” and the Vmax, FXa generation assay (KLTCLASYcWLF) was greater than 3. For the same substance, the “Vmax … (++) means 1-2” value (KLTCLATYCWLF) was “(++)”, the “Vmax … (++) means 1-2” value [6] was “(++)” and the Vmax, FXa generation assay [7] was greater than 3. For the same substance, the Vmax, FXa generation assay [8] was greater than 2, the Vmax, FXa generation assay [9] was greater than 3 and the Vmax, FXa generation assay [10] was greater than 3. For the same substance, the “Vmax … (++) means 1-2” value [11] was “(++)”, the Vmax, FXa generation assay (RGRSAKLRCLASYCWLFFTVIL) was greater than 2 and the Vmax, FXa generation assay (RGRSAKLTCLASYCWLFFGVIL) was greater than 2. The Vmax, FXa generation assay (RKAPGKLQCLASYCWLFWTGIA) was greater than 2, the “Vmax … (++) means 1-2” value (RQLWNKLTCLASYCALIGLSGT) was “(++)” and the “Vmax … (++) means 1-2” value (RRAKGKLQCLASYCWLFWTGIA) was “(++)”. The “Vmax … (++) means 1-2” value [12] was “(++)”, the “Vmax … (++) means 1-2” value [13] was “(++)” and the Vmax, FXa generation assay [14] was greater than 2. For the same substance, the “Vmax … (++) means 1-2” value [15] was “(++)”, the Vmax, FXa generation assay (RRAPGKLQCLASYCWLFWTG) was greater than 2 and the Vmax, FXa generation assay (RRAPGKLQCLASYCWLFWT) was greater than 2. For the same substance, the Vmax, FXa generation assay [16] was greater than 2, the “Vmax … (++) means 1-2” value [17] was “(++)” and the Vmax, FXa generation assay [18] was greater than 3. The Vmax, FXa generation assay [19] was greater than 2, the Vmax, FXa generation assay [20] was greater than 2 and the “Vmax … (++) means 1-2” value (RRAPGKLTCLASYCWLFWTGIa [21]) was “(++)”. The Vmax, FXa generation assay [22] was greater than 2, the Vmax, FXa generation assay (RRAPGkLTCLASYCWLFWTGIA [23]) was greater than 2 and the Vmax, FXa generation assay (RRKPGKLQCLASYCWLFWTGIA) was greater than 2. For the same substance, the Vmax, FXa generation assay [24] was greater than 1.9, the Vmax, FXa generation assay [25] was greater than 2 and the Vmax, FXa generation assay [26] was greater than 3. The Vmax, FXa generation assay [27] was greater than 3, the “Vmax … (++) means 1-2” value [28] was “(++)” and the Vmax, FXa generation assay with hFIXa (compound 20) was greater than 2. For the same substance, the Vmax, FXa generation assay with hFIXa (compound 22) was greater than 3, the Vmax, FXa generation assay with hFIXa (compound 25) was greater than 2 and the KM (nM) of hFIXa for FX (compound C) was 99 nM. The Vmax, FXa generation assay with hFIXa (compound C) was greater than 0.6, the kcat (min^-1) of hFIXa for FX, scrambled control at 10.0 µM (compound C) was 0.00044 min⁻¹ and the “Vmax … (++) means 1-2” value (rRAPGKLTCLASYCWLFSTGIA) was “(++)”.
